The values that follow come from article PMC2941729 (Molecular Microbiology, 2010).

This series deals with the molecule itself. Put plainly: SEC. Background: SEC sorts molecules by how far they enter the pores of the column.

B1: G266DΔGAF–His (domain or fragment, Escherichia coli K12, UniProt P37013 171-504, looked up)
chain: MLPGDATPFEAVKQTQMIGLSPGMTQLKKEIEIVAASDLNVLISGETGTGKELVAKAIHEASPRAVNPLVYLNCAALPESVAESELFGHVKGAFTDAISNRSGKFEMADNGTLFLDEIGELSLALQAKLLRVLQYGDIQRVGDDRCLRVDVRVLAATNRDLREEVLAGRFRADLFHRLSVFPLSVPPLRERGDDVILLAGYFCEQCRLRQGLSRVVLSAGARNLLQHYSFPGNVRELEHAIHRAVVLARATRSGDEVILEAQHFAFPEVTLPTPEVAAVPVVKQNLREATEAFQRETIRQALAQNHHNWAACARMLETDVANLHRLAKRLGLKD
As for B1, the binding result is “binds”.
